Test results reported in PMC9482650, “Quantitative fragmentomics allow affinity mapping of interactomes” (Nature Communications, 2022).

What was measured:
Assay in all cases: holdup assay
Design in all cases: key: below the threshold = too weak to quantify, mostly under pKd 3.1 to 4
MPP6, Q9NZW5 = molecular target: T1, MPP6, Q9NZW5
T1 sequence (Q9NZW5 125-219, limits assumed, looked up): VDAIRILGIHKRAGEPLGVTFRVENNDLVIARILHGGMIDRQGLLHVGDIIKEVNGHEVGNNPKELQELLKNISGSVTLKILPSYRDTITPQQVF

GRIP1_3, Q9Y3R0 = molecular target: T2, GRIP1_3, Q9Y3R0
T2 sequence (Q9Y3R0 247-346, limits assumed, looked up): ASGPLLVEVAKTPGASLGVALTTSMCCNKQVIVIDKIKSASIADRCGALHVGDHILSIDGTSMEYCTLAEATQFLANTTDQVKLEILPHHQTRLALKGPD

CASK, O14936 = molecular target: CASK, O14936
DFNB31_1, Q9P202 = molecular target: T3, DFNB31_1, Q9P202
T3 sequence (Q9P202 135-233, limits assumed, looked up): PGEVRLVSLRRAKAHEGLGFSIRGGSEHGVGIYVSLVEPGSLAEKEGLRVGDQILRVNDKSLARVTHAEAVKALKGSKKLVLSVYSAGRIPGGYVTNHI

PCLO, Q9Y6V0 = molecular target: T4, PCLO, Q9Y6V0
T4 sequence (Q9Y6V0 4491-4600, limits assumed, looked up): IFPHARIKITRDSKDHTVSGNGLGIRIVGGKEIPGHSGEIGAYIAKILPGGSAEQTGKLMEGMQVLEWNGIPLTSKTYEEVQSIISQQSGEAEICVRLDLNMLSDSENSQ

PARD3B_1, Q8TEW8 = molecular target: T5, PARD3B_1, Q8TEW8
T5 sequence (Q8TEW8 196-299, limits assumed, looked up): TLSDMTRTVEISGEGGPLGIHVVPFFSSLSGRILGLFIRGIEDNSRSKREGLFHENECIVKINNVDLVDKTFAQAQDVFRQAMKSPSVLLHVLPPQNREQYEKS

Inadl_4, Q8NI35 = molecular target: Inadl_4, Q8NI35
APBA1_2, Q02410 = molecular target: T6, APBA1_2, Q02410
T6 sequence (Q02410 742-832, limits assumed, looked up): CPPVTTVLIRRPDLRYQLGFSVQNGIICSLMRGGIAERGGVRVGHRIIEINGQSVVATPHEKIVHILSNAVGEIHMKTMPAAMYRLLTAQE

NHERF2_2, Q15599 = molecular target: NHERF2_2, Q15599
TJP1_2, Q07157 = molecular target: TJP1_2, Q07157
MPDZ_12, O75970 = molecular target: T7, MPDZ_12, O75970
T7 sequence (O75970 1857-1958, limits assumed, looked up): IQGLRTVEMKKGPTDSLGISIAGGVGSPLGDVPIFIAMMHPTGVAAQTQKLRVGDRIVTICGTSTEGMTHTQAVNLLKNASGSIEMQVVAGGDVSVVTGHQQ

FRMPD2_2, Q68DX3 = molecular target: FRMPD2_2, Q68DX3
PTPN13_1, Q12923 = molecular target: T8, PTPN13_1, Q12923
T8 sequence (Q12923 1088-1188, limits assumed, looked up): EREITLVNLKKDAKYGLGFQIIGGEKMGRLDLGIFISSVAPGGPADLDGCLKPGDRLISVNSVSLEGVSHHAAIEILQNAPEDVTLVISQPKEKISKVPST

Inadl_6, Q8NI35 = molecular target: Inadl_6, Q8NI35
LAP2, Q96RT1 = molecular target: LAP2, Q96RT1
PDZD7_3, Q9H5P4 = molecular target: T9, PDZD7_3, Q9H5P4
T9 sequence (Q9H5P4 857-944, limits assumed, looked up): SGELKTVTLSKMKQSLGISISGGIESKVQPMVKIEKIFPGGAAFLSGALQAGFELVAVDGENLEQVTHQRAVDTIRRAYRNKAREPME

APBA3_1, O96018 = molecular target: T10, APBA3_1, O96018
T10 sequence (O96018 389-490, limits assumed, looked up): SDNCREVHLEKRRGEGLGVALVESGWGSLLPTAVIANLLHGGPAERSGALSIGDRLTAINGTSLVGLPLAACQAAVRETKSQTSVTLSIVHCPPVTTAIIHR

GIPC2, Q8TF65 = molecular target: GIPC2, Q8TF65
DLG1_2, Q12959 = molecular target: DLG1_2, Q12959
GRIP1_4, Q9Y3R0 = molecular target: T11, GRIP1_4, Q9Y3R0
T11 sequence (Q9Y3R0 467-571, limits assumed, looked up): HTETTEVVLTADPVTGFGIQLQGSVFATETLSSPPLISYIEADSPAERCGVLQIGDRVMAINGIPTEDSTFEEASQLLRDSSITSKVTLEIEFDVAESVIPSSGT

FRMPD2_3, Q68DX3 = molecular target: FRMPD2_3, Q68DX3
SHANK1, Q9Y566 = molecular target: T12, SHANK1, Q9Y566
T12 sequence (Q9Y566 658-767, limits assumed, looked up): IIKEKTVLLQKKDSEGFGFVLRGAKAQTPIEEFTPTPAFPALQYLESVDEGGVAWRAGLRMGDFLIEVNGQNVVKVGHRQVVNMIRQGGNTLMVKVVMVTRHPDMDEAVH

MAGI2_4, Q86UL8 = molecular target: MAGI2_4, Q86UL8
DLG3_2, Q92796 = molecular target: T13, DLG3_2, Q92796
T13 sequence (Q92796 221-321, limits assumed, looked up): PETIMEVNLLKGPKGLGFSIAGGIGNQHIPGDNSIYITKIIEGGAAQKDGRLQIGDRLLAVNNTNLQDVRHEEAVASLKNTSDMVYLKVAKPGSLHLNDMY

[1] = plain residues with an end cap or a label only (N-terminal biotin on a linker: ahx)
[2] = plain residues with an end cap or a label only (N-terminal biotin on a linker: ado-ado)
[3] = plain residues with an end cap or a label only (N-terminal biotin on a linker: ttds)

Chain of LAP2, Q96RT1 (Q96RT1 other isoform, or with tags, fused parts or gaps): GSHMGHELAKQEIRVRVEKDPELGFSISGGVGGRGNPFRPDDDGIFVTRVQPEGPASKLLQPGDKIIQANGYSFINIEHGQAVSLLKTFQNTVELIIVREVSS
Chain of Inadl_4, Q8NI35 (Q8NI35 547-651): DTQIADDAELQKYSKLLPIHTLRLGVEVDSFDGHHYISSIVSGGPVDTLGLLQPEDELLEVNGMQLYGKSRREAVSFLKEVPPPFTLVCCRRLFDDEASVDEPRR
Chain of NHERF2_2, Q15599 (Q15599 142-238): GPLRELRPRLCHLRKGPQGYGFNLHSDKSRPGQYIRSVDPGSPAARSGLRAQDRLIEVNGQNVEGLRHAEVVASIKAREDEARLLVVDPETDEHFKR
Chain of DLG1_2, Q12959 (Q12959 314-412): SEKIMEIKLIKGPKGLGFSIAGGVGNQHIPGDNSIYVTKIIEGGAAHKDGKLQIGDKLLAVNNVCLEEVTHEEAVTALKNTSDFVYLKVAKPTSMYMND
Chain of FRMPD2_2, Q68DX3 (Q68DX3 944-1038): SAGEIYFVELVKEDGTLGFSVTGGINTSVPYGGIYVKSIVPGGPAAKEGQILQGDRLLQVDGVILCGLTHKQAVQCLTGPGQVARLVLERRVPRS
Chain of MAGI2_4, Q86UL8 (Q86UL8 772-865): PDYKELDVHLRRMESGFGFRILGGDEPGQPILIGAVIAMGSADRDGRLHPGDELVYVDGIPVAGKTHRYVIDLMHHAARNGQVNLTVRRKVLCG
Chain of GIPC2, Q8TF65 (Q8TF65 112-203): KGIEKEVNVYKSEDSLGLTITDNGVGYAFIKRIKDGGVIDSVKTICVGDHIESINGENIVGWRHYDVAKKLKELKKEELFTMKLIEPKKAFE
Chain of CASK, O14936 (O14936 487-570): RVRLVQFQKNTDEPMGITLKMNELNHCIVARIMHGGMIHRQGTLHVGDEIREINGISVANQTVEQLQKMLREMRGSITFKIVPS
Chain of FRMPD2_3, Q68DX3 (Q68DX3 1073-1166): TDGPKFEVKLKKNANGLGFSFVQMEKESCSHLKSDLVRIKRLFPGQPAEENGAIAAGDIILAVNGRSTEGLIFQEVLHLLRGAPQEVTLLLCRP
Chain of TJP1_2, Q07157 (Q07157 181-274): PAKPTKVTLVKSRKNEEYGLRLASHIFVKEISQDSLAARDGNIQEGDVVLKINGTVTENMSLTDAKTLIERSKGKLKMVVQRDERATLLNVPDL
Chain of Inadl_6, Q8NI35 (Q8NI35 1058-1167): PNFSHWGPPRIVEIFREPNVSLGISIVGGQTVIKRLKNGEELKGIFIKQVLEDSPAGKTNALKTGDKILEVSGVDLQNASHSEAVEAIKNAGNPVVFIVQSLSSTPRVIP

In the case of QGRWDHETIV [TMEM215, Q68D42], the pKd (MPP6, Q9NZW5; [1]) is reported as “below the threshold”, the pKd (GRIP1_3, Q9Y3R0; [1]) is reported as “below the threshold” and the pKd (CASK, O14936; [1]) is reported as “below the threshold”. The pKd (DFNB31_1, Q9P202; [1]) was 3.86, the pKd (PCLO, Q9Y6V0; [1]) was “below the threshold” and the pKd (PARD3B_1, Q8TEW8; [1]) was 3.57. The pKd (Inadl_4, Q8NI35; [1]) was “below the threshold”, the pKd (APBA1_2, Q02410; [1]) was 3.9 and the pKd (NHERF2_2, Q15599; [1]) was “below the threshold”. For the same binder, the pKd (TJP1_2, Q07157; [1]) was 3.5, the pKd (MPDZ_12, O75970; [1]) was “below the threshold” and the pKd (FRMPD2_2, Q68DX3; [1]) was 4.4. The pKd (PTPN13_1, Q12923; [1]) was “below the threshold”, the pKd (Inadl_6, Q8NI35; [1]) was 3.98 and the pKd (LAP2, Q96RT1; [1]) was 4.09. For the same binder, the pKd (PDZD7_3, Q9H5P4; [1]) was 4.97, the pKd (APBA3_1, O96018; [1]) was “below the threshold” and the pKd (GIPC2, Q8TF65; [1]) was 3.81. For the same binder, the pKd (DLG1_2, Q12959; [1]) was 4.81, the pKd (GRIP1_4, Q9Y3R0; [1]) was “below the threshold” and the pKd (FRMPD2_3, Q68DX3; [1]) was 3.97. For the same binder, the pKd (SHANK1, Q9Y566; [1]) was 3.57, the pKd (MAGI2_4, Q86UL8; [1]) was 4 and the pKd (DLG3_2, Q92796; [1]) was 4.8.

In the case of TETASVCTKV [SLC23A1, Q9UHI7], the pKd (MPP6, Q9NZW5; [2]) is reported as 3.87, the pKd (GRIP1_3, Q9Y3R0; [2]) is reported as “below the threshold” and the pKd (CASK, O14936; [2]) is reported as “below the threshold”. The pKd (DFNB31_1, Q9P202; [2]) was 4.18, the pKd (PCLO, Q9Y6V0; [2]) was “below the threshold” and the pKd (PARD3B_1, Q8TEW8; [2]) was 3.61. For the same binder, the pKd (Inadl_4, Q8NI35; [2]) was “below the threshold”, the pKd (APBA1_2, Q02410; [2]) was 4.64 and the pKd (NHERF2_2, Q15599; [2]) was 4.16. For the same binder, the pKd (TJP1_2, Q07157; [2]) was 3.5, the pKd (MPDZ_12, O75970; [2]) was 3.82 and the pKd (FRMPD2_2, Q68DX3; [2]) was 3.93. For the same binder, the pKd (PTPN13_1, Q12923; [2]) was “below the threshold”, the pKd (Inadl_6, Q8NI35; [2]) was “below the threshold” and the pKd (LAP2, Q96RT1; [2]) was 3.74. For the same binder, the pKd (PDZD7_3, Q9H5P4; [2]) was 4.63, the pKd (APBA3_1, O96018; [2]) was “below the threshold” and the pKd (GIPC2, Q8TF65; [2]) was 3.6. For the same binder, the pKd (DLG1_2, Q12959; [2]) was 4.4, the pKd (GRIP1_4, Q9Y3R0; [2]) was “below the threshold” and the pKd (FRMPD2_3, Q68DX3; [2]) was “below the threshold”. The pKd (SHANK1, Q9Y566; [2]) was 4.42, the pKd (MAGI2_4, Q86UL8; [2]) was 3.58 and the pKd (DLG3_2, Q92796; [2]) was 4.02.

In the case of RTRQRNETQV [HPV51-E6, P26554], the pKd (MPP6, Q9NZW5; [3]) is reported as “below the threshold”, the pKd (GRIP1_3, Q9Y3R0; [3]) is reported as “below the threshold” and the pKd (CASK, O14936; [3]) is reported as “below the threshold”. The pKd (DFNB31_1, Q9P202; [3]) was 3.47, the pKd (PCLO, Q9Y6V0; [3]) was “below the threshold” and the pKd (PARD3B_1, Q8TEW8; [3]) was “below the threshold”. For the same binder, the pKd (Inadl_4, Q8NI35; [3]) was “below the threshold”, the pKd (APBA1_2, Q02410; [3]) was 3.56 and the pKd (NHERF2_2, Q15599; [3]) was “below the threshold”. The pKd (TJP1_2, Q07157; [3]) was “below the threshold”, the pKd (MPDZ_12, O75970; [3]) was “below the threshold” and the pKd (FRMPD2_2, Q68DX3; [3]) was 3.41. For the same binder, the pKd (PTPN13_1, Q12923; [3]) was “below the threshold”, the pKd (Inadl_6, Q8NI35; [3]) was “below the threshold” and the pKd (LAP2, Q96RT1; [3]) was 3.69. The pKd (PDZD7_3, Q9H5P4; [3]) was 3.88, the pKd (APBA3_1, O96018; [3]) was “below the threshold” and the pKd (GIPC2, Q8TF65; [3]) was 3.63. For the same binder, the pKd (DLG1_2, Q12959; [3]) was 5.13, the pKd (GRIP1_4, Q9Y3R0; [3]) was “below the threshold” and the pKd (FRMPD2_3, Q68DX3; [3]) was “below the threshold”. For the same binder, the pKd (SHANK1, Q9Y566; [3]) was “below the threshold”, the pKd (MAGI2_4, Q86UL8; [3]) was 4.4 and the pKd (DLG3_2, Q92796; [3]) was 5.1.
